Columns and labels:
[1] = Cell lysate reaction of pMT enzymes with psi-ionone, irones quantified by HS-SPME-GCMS; assay type: biochemical; settings: for fold change in cis-α-irone produced: AUC vs non-mutated (=1)
Method in brief: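 pMT1 site-saturation mutants were expressed in E. coli BL21(DE3) and lysed, and lysates were incubated 2 days at 28 °C with 0.2 mM SAM and 10 mg/L psi-ionone (plus caryophyllene) in 50 mM Tris pH 7, 10 mM MgCl2. Cis-α-irone was measured by HS-SPME-GCMS peak area and given as fold change over non-mutated enzyme.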

[2] = In vivo cis-α-irone production from glucose/glycerol in strain 2O31 cultures; assay type: cell-based, Escherichia coli; settings: pMT plasmid transformed into strain 2O31; 2 days
Excerpt: The advantage of in vivo biotransformation is that microbial cells can regenerate expensive co-factors rendering the scale-up bioprocess more cost-effective. […] Thus, pMT was incorporated into our psi-ionone producing microbe^7,8, to synthesize cis-α-irone from cheap renewable carbon sources (glucose/glycerol) (FIG. 4 and FIG. 19). To achieve high productivity, the psi-ionone production was first optimized by multidimensional heuristic process (MHP)^15, and strain 2O31 was identified to be the highest producer for psi-ionone (FIG. 19b). 2O31 was used as the base strain to probe cis-α-irone production in vivo (Table 5). Moreover, to improve the plasmid stability, auxotrophic strain was used with chemically defined media^1. The plasmid carrying pMT1, pMT7 or pMT10 was transformed into the strain 2O31, and produced less than 0.01, about 2 and about 3 mg/L cis-α-irone respectively in 2 days (FIG. 19d). To further optimize irone production with pMT10, three different culture conditions were tested: no methionine or dodecane added (control); 10 mM methionine added; 10 mM methionine and 20% dodecane added. In the control reaction, approximately 4.8 mg/L or 0.85 mg/L/OD cis-α-irone was produced after 3-day incubation (2O31-pMT10, FIGS. 4c and 4e). […] Lastly, when both methionine and dodecane were added, psi-ionone was accumulated in the organic layer and only ˜0.3 mg/L or ˜0.05 mg/L/OD cis-α-irone was produced (2O31-pMT10, FIGS. 4c, d and e). […] The limited methylation efficiency might be due to insufficient cofactor or SAH inhibition. […] In fact, the total amount of psi-ionone and cis-α-irone decreased (FIG. 4c, and d). As SAM biosynthesis is regulated by metJ in E. coli^16,17, the aforementioned six reactions were subsequently examined under metJ deleted genetic background (2O31, ΔmetJ). An increase in cis-α-irone titer to ˜5.7 mg/L was produced by 2O31 ΔmetJ-pMT10 strain with 10 mM methionine supplementation (FIG. 4c). An increase in specific cis-α-irone titer to ˜1.2 mg/L/OD was produced by 2O31 ΔmetJ-pMT10r strain without methionine supplementation (FIG. 4d). […]

B1: pMT1: wild-type bifunctional methyltransferase and cyclase TleD from Streptomyces blastmyceticus (protein, listed as Streptomyces blastmyceticus)
chain: MPQEARTPQQQVTADEVGDWYDKFGEVYHLTLGESVHCGLWFPPDAPVPQDMELVTMSSQAQDRYTDYLIETLDPKAGQHLLDIGCGTGRTALKAARQRGIAVTGVAVSKEQIAAANRLAAGHGLTERLTFEVADAMRLPYEDESFDCAWAIESLCHMDRAKALGEAWRVLKPGGDLLVLESVVTEELTEPETALFETLYAANVPPRLGEFFDIVSGAGFHTLSLKDLSANLAMTMNVFALGVYSRRAEFTERFGAEFVDGLLAGLGSAQETLIRKTRFFMATLRKPAV
- cis-α-irone content (percentage of cis-α-irone in the irone mixture) ([1]; cell extracts with psi-ionone): 21%
- trans-α-irones detected (share of irones) ([1]; cell extracts with psi-ionone): 79%
- fold change in cis-α-irone produced ([1]; pMT1_E153 mutants): 1.0
- fold change in cis-α-irone produced ([1]; pMT1_M236 mutants): 1.0
- fold change in cis-α-irone produced ([1]; pMT1_R160 mutants): 1.0
- fold change in cis-α-irone produced ([1]; pMT1_S182 mutants): 1.0
- fold change in cis-α-irone produced ([1]; pMT1_Y200 mutants): 1.0
- cis-α-irone produced [2]: less than 0.01 mg/L

From patent US20240240209A1, “SYNTHESIS OF ENANTIOPURE CIS-A-IRONE FROM A RENEWABLE CARBON SOURCE” (Agency for Science, Technology and Research, priority 2021, published 2024)
